Data as given in the nanobody polyreactivity screen of Harvey et al. (2022).

Test: yeast display, Sf9 membrane polyspecificity reagent, FACS + sequencing; frameworks hold sequencing errors
Outline: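 Synthetic nanobody libraries on Saccharomyces cerevisiae BJ5465 were galactose-induced for 36–48 hours, stained 1 hour at 4 °C with 10% biotinylated, detergent-solubilized Sf9 membrane reagent and enriched on streptavidin microbeads. FACS then separated cells into low and high (top ~1%) gates by anti-HA (expression) and streptavidin (reagent binding) fluorescence. Genes were colony-PCR amplified, MiSeq 2 × 250 sequenced and CDR-length filtered. A clone's polyreactivity label is that of its gate of origin.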
For “QVQLVESGGGLVQAGGSLRLSCAASGNTFWDNAMGWYRQAPGKERELVAAIRWSTGSTHYADSVKGRFTISRDNAKNTVYLQMNSLKPEDTAVYYCAATDYYYYRDKYYGYDYWGQGTQVTVSS”, the “polyreactivity (PSR sort gate)” value was “low polyreactivity”. In the case of “QVQLVESGGGLVQAGGSLRLSCAASGNTFYGYALGWYRPAPGKERELVASITLSGDSTHYADSVKGRFTISRDNAKNTVYVQMNSLKPEDTAVYYCAGVYTYPLGYYHYTYDYWGQGTQVTVSS”, the “polyreactivity (PSR sort gate)” value is reported as “low polyreactivity”. With “QVQLVESGGGLVQAGGSLRLSCAASGNTFYGYAMGWYRQAPGNERELVASITLSGDSTYYADSVKGRFTISRDNAKNTVYLQMNSLKPEDTAVYYCAGVYTYPLGYYHDTYDYWGQGTQVTVSS” the “polyreactivity (PSR sort gate)” value was “low polyreactivity”. For “QVQLVESGGGLVQAGGSLRLSCAASGNTFYRYAMGGYRQSPGKERELVAAITWSGSRTYYADSVKGRFTISRDNAKYTVYLQMNRLKPEDTAVYYCAAPFWYVGPAMDYWGQGTQVTVSS”, the “polyreactivity (PSR sort gate)” value was “low polyreactivity”. With “QVQLVESGGGLVQAGGSLRLSCAASGNTFYWYVMGWYRQAPGKERELVARITSSGGSTNYADSVKGRFTISRDNAKNTVYLQMNSLKPEDTAVYYCAADDIYLYGGGTDYYFWGQGTQVTVSS” the “polyreactivity (PSR sort gate)” value was “low polyreactivity”. With “QVQLVESGGGLVQAGGSLRLSCAASGNTIGSNAMGWYRQAPGKERELVATISKRGGSTYYADSVKGRFTISRDNAKNTVYLQMNSLKPEDTAVYYCATTSTRYWAFSSRPDYRDDYWGQGTQVTVSS” the “polyreactivity (PSR sort gate)” value was “high polyreactivity”. For “QVQLVESGGGLVQAGGSLRLSCAASGNTIYQYAMGWYRQAPGKERELVAAISSSVDRTYYADSVKGRFTISRDNAKNTVYLQMNSLKPEDTAVYYCAAASGGRWRVGYWGQGTQVTVSS”, the “polyreactivity (PSR sort gate)” value was “high polyreactivity”. In the case of “QVQLVESGGGLVQAGGSLRLSCAASGNTLGYNAMGWYRKAPGKERELVATIRGSGGITYYADSVKGRFTISRDNAKNTVYLQMNSLKPEDTAVDYCAKVYKYRVKGDHWGQGTQVTVSS”, the “polyreactivity (PSR sort gate)” value is reported as “low polyreactivity”. With “QVQLVESGGGLVQAGGSLRLSCAASGNTLRYNVMGWYRQAPGKERELDAAISGGGSTSYADSVKGRFTISRDNAKNTVYLQMNSLKPEDTAVYYCAKRSFVGGRGRDSDYWGQGSQVTVSS” the “polyreactivity (PSR sort gate)” value was “low polyreactivity”. In the case of “QVQLVESGGGLVQAGGSLRLSCAASGNTLTYNVMGWYRQAPGKERELVAAISGRGGRTYYADSVKGRFTISRDNAKNTVYLQMNCLKPEDTAVYYCAAKSRNGESGGFDYWGQATQVTVSS”, the “polyreactivity (PSR sort gate)” value is reported as “high polyreactivity”. With “QVQLVESGGGLVQAGGSLRLSCAASGNTLVKNAMGWYRQAPGNERELVAAISSSGGRTYYADSVKGRFTISRDNAKNTVYLQMNSLKPEDTAVYYCAARYPSGYYYWGQGTQVTVSS” the “polyreactivity (PSR sort gate)” value was “high polyreactivity”. With “QVQLVESGGGLVQAGGSLRLSCAASGNTTPVNAMGWYRQAPGKERQLVAAITQSGGSTYYADSVKGRFTISRDNAKNTVYLQMNSLKPEDTAVYYCAADYGHYYGLYYWGQGTQVTVSS” the “polyreactivity (PSR sort gate)” value was “low polyreactivity”. With “QVQLVESGGGLVQAGGSLRLSCAASGNTYYGNTKGWYRQAPGKERELVAAITSGGSTYYADSVKGRFTISRDNAKNTVYLQMNSLKPEDTAVYYCNVVFYEYSSVSYDYWGQGTQVTVSS” the “polyreactivity (PSR sort gate)” value was “high polyreactivity”. In the case of “QVQLVESGGGLVQAGGSLRLSCAASGPIFKRNAMGWYRQAPGKERELVAAISGSGGRTYYADSVKGRFTISRDNAKNTVYLQMNSLKPEDTAVYYCNAGGSYYARGMDYWGQGTQVTVSS”, the “polyreactivity (PSR sort gate)” value is reported as “high polyreactivity”. With “QVQLVESGGGLVQAGGSLRLSCAASGPIFWGYAMGWYRQAPGKERELVAAITSGGNTNYADSVKGRFTISRDNAKNTVYLQMISLKPEDTAVSYCAKRTRPWRDFDYWGQGTQVTVSS” the “polyreactivity (PSR sort gate)” value was “low polyreactivity”. In the case of “QVQLVESGGGLVQAGGSLRLSCAASGPIFYRYAMGWYRQAPGKERELVAAISRGGRTYYADSVKGRFTISRDNAKNTVYLQMNRLKPEDTAVYYCATTYSLGSWGYDYWGQGTQVTVSS”, the “polyreactivity (PSR sort gate)” value is reported as “high polyreactivity”. In the case of “QVQLVESGGGLVQAGGSLRLSCAASGPIVAYNAMGWYRQAPGKERELVAAISYSGGSTYYADSVKGRFTISRDNAKNTVYLQMNSLKPEDTAVYYCNAVYRYRTYRYDYWGQGTQVTVSS”, the “polyreactivity (PSR sort gate)” value is reported as “high polyreactivity”. In the case of “QVQLVESGGGLVQAGGSLRLSCAASGPTFDYYAMGWYRQAPGKERELVAAISYSGGNSYYADSVKGRFTISRDNAKNTVYLQMNSLKPEDTAVYYWAANPAARDGRKTGYFCGQGTQVTVSS”, the “polyreactivity (PSR sort gate)” value is reported as “high polyreactivity”. With “QVQLVESGGGLVQAGGSLRLSCAASGPTFGVNAMGWYRQAPGKERELVAVISSTGSTNYSDSVKGRFTISRDNAKYTVYLQMNSLKPEDTAVYYCAVGPNSVGNRSYGFDYWGQGTQVTVSS” the “polyreactivity (PSR sort gate)” value was “low polyreactivity”. In the case of “QVQLVESGGGLVQAGGSLRLSCAASGPTFQIYAMGSYRQAPGNERELDAAIRWRGGTTYYADSVKGRFTISRDNAKNTVYLQMNSLTPEDTAVYYCAADYYWSPYYVYQFDYWGQGTQVTVSS”, the “polyreactivity (PSR sort gate)” value is reported as “low polyreactivity”. For “QVQLVESGGGLVQAGGSLRLSCAASGPTFWVYAMGWNRQAPGKERELVAAISRSGVSTYYADSVKGRFTISRDNAKNTVYLQMNSLKPEDTAVYYCAAPLIYTPLKYHYWGQGTQVTVSS”, the “polyreactivity (PSR sort gate)” value was “low polyreactivity”. For “QVQLVESGGGLVQAGGSLRLSCAASGPTNAMGWYRQAPGKERELVAAITKSGGSTYYADSVKGRFTISRDNAKNTVYLLMNSLKPEDTAVYYCALILRHTAYYYWGQGTQVTVSS”, the “polyreactivity (PSR sort gate)” value was “high polyreactivity”. With “QVQLVESGGGLVQAGGSLRLSCAASGQIFSRYAMGWSRQAPGNERELVAAITWSGGRTYYADSVKGRFTISRDNAKYTVYLQMNSLKAEDTAVYYCAATRYPLPEYYWGQGTQGTVSS” the “polyreactivity (PSR sort gate)” value was “high polyreactivity”. With “QVQLVESGGGLVQAGGSLRLSCAASGQKFEYNAMVWYRQAPRKERELVAVITYTYYADSVKGRFTISRDNAKNTVYLLMNCLKPEATAVYYCAVLYSEEILRNDNGVRFDYWGQGTQVTVSS” the “polyreactivity (PSR sort gate)” value was “low polyreactivity”. With “QVQLVESGGGLVQAGGSLRLSCAASGQTIAAYVMGWYRQAPGKERELVARISRSGGSTYYADSVKGRFTISRDNAKNTVYLQMNSLKPEDTAVYYCAAARPYKTSLPGAPYDYWGQGTQVTVSS” the “polyreactivity (PSR sort gate)” value was “low polyreactivity”. In the case of “QVQLVESGGGLVQAGGSLRLSCAASGRIFAAYAMGWYRQAPGKEREFVAAIRLSGGSTYYADSVKGRFTISRDNAKNTVYLQMNSLKPEDTAVYYCAARYPGVARFYYWGQGTQLTVSS”, the “polyreactivity (PSR sort gate)” value is reported as “high polyreactivity”. In the case of “QVQLVESGGGLVQAGGSLRLSCAASGRIFAAYAMGWYRQAPGKERELVAGISRGGRTYYADSVKGRFTISRDNAKNTVYLQMNSLKPEDTAVYYCNKAPSWWDVRVPFDYWGQGTQVTVSS”, the “polyreactivity (PSR sort gate)” value is reported as “low polyreactivity”. For “QVQLVESGGGLVQAGGSLRLSCAASGRIFAAYAMGWYRQAPGKERELVDAISSTGGTTYYADSVKGRFTISRDNAKNTVYLQMNSLKPEDTAVYYCATTVIVTKGSWHYSYDYWGQGTQVTVSS”, the “polyreactivity (PSR sort gate)” value was “low polyreactivity”. For “QVQLVESGGGLVQAGGSLRLSCAASGRIFAENAMGWYRQAPGKERELVAAITDGGGSTYYADSVKGRFTISRDNAKNTVYLQMNSLKPEDTAVYYCNAYRYHLGVDFDYWGQGTQVTVSS”, the “polyreactivity (PSR sort gate)” value was “low polyreactivity”. With “QVQLVESGGGLVQAGGSLRLSCAASGRIFAFNAMGWYRQAPGKERELVAAITGRGGRTYYADSVKGRFTISRDNAKNTVYLQMNSLKPEDTAVYYCAAQRYINYDYWGQGTQVTVSS” the “polyreactivity (PSR sort gate)” value was “high polyreactivity”. With “QVQLVESGGGLVQAGGSLRLSCAASGRIFAFYAMGWYRQAPGKERQLVAVISKSGGTTYYADSVKGRFTISRDNAKNTVYLQMNSLKPEDTAVYYCNKRVFYRHGYSYNYWGQGTQVTVSS” the “polyreactivity (PSR sort gate)” value was “high polyreactivity”. For “QVQLVESGGGLVQAGGSLRLSCAASGRIFAFYAMGWYRQAPGKVREFVAAITKSGGSTYYADSVKGRFTISRDNAKNTVYLQMNSLKPEDTAVYYCAADYWYPTTYYLYDYWGQGTQVTVSS”, the “polyreactivity (PSR sort gate)” value was “low polyreactivity”. For “QVQLVESGGGLVQAGGSLRLSCAASGRIFAFYARGSSRQAPGKERQLVAVISKSGGTTYYADSVKGRFTISRDNAKNTVYLQMNSLKPEDTAVYYCNKRVFYRHGYSYNYWGQGTQVTVSS”, the “polyreactivity (PSR sort gate)” value was “high polyreactivity”. In the case of “QVQLVESGGGLVQAGGSLRLSCAASGRIFAGYALGWYRPAPGKERELVATSTRGGSTNYADSVKRPFTISRDNAKNTVYLQMNSLKPEDTAVYYCAAPYSSYKVRPYDYWGQGTQVTVSS”, the “polyreactivity (PSR sort gate)” value is reported as “low polyreactivity”. For “QVQLVESGGGLVQAGGSLRLSCAASGRIFAHYAMGWYRQAPGKERELVADITDGGSTYYADSVKGRFTISRDNAKNTVYLQMNSLKPEDTAVYYCATRRGPWPSEYDSWGQGTQVTVSS”, the “polyreactivity (PSR sort gate)” value was “low polyreactivity”. With “QVQLVESGGGLVQAGGSLRLSCAASGRIFAKNVMGWYRQGPGKEWELVAAISRSGGSTYYADSVKGRFSISRDNAKNTVYLQMNSLKPEDTAVSYCGAYYGPDSARYYGGYEYWGQGTQVTVSS” the “polyreactivity (PSR sort gate)” value was “high polyreactivity”. With “QVQLVESGGGLVQAGGSLRLSCAASGRIFALNAMVWYRQAPGKERELVAAITWGGGSTYYADSVKGRFTISRDNAKNTVYLQMNSLKPEDTAVYYCAADVPSRVYTVISVEVEYWGQGTQVTVSS” the “polyreactivity (PSR sort gate)” value was “low polyreactivity”. In the case of “QVQLVESGGGLVQAGGSLRLSCAASGRIFANYARGWYRQAPGKERELVAAITASGGSTYYADSVKGRFTISRVNAKNTVYLQMNSLKPEDTAGYYCAKGYRLYTMYSWGQGTQVTVSS”, the “polyreactivity (PSR sort gate)” value is reported as “high polyreactivity”. For “QVQLVESGGGLVQAGGSLRLSCAASGRIFAPYAMGWYRQAPGKEREFVATITHSGGRTYYADSVKGRFTISRDNAKNNVYLQMNSLKPEHTAVYYCAAGYGYNRLYYGVDYWGQGTQVTVSS”, the “polyreactivity (PSR sort gate)” value was “low polyreactivity”. With “QVQLVESGGGLVQAGGSLRLSCAASGRIFAPYAMGWYRQAPGKERELVAAITRGGITNYADSVKGRFTISRDNAKNTVYLQMNSLKPEDSAVYYCETVVNRRGFYQYFYWGQGTQVTVSS” the “polyreactivity (PSR sort gate)” value was “high polyreactivity”. With “QVQLVESGGGLVQAGGSLRLSCAASGRIFAPYAMGWYRQAPGKEWQLVAAIRTSGGRTYYADSVKGRFTISRDNAKNTVYLQMNSLKPEDSAVYYCAPLAWSTGRTTTVYDYWGLGTQVTVSS” the “polyreactivity (PSR sort gate)” value was “high polyreactivity”. For “QVQLVESGGGLVQAGGSLRLSCAASGRIFARNVMGWYRQAPGKERELVAGISRSGGTTYYADSVKGRFTISRDNAKNTVYLQMNSLKPEDTAVYYCAAYYFLENDYWGPGTQVTVSS”, the “polyreactivity (PSR sort gate)” value was “high polyreactivity”. With “QVQLVESGGGLVQAGGSLRLSCAASGRIFARYAMGWYRQAPGKERELVAAISFRGGSTYYADSVKGRFTISRDNAKNTVYLQMNSLKPEDTAVYYCAARFGGWDRGLDYWGQGTQVTVSS” the “polyreactivity (PSR sort gate)” value was “high polyreactivity”.
